Where no end group is shown, it is not given here. The star is where a group is joined. FITC = O=C1OC2(c3ccc(O)cc3Oc3cc(O)ccc32)c2ccc(NC(=S)*)cc21; Ahx = NCCCCCC(=O)O
Key:
Experiment in all cases: native gel or EMSA; 1.5% agarose gel in TB buffer (0.45 mM tris, 0.45 mM boric acid, pH ~8.5), 2 hours at 75 V; recombinant IMPs 20 μM, FITC peptides 10 μM; peptides seen with a UV filter, proteins by Coomassie staining
Settings in all cases: both partners purified
human importin β3 = molecular target: T1, human importin β3 (human, UniProt O00410 1-1097)
T1 construct: human importin β3; In pET30a with His tag and TEV site; no cleavage step is described in the purification; also called hIMPβ3; IMPβ3; source: E. coli BL21(DE3)pLysS, purified (HisTrap, Superdex 200 SEC)
T1 sequence (looked up): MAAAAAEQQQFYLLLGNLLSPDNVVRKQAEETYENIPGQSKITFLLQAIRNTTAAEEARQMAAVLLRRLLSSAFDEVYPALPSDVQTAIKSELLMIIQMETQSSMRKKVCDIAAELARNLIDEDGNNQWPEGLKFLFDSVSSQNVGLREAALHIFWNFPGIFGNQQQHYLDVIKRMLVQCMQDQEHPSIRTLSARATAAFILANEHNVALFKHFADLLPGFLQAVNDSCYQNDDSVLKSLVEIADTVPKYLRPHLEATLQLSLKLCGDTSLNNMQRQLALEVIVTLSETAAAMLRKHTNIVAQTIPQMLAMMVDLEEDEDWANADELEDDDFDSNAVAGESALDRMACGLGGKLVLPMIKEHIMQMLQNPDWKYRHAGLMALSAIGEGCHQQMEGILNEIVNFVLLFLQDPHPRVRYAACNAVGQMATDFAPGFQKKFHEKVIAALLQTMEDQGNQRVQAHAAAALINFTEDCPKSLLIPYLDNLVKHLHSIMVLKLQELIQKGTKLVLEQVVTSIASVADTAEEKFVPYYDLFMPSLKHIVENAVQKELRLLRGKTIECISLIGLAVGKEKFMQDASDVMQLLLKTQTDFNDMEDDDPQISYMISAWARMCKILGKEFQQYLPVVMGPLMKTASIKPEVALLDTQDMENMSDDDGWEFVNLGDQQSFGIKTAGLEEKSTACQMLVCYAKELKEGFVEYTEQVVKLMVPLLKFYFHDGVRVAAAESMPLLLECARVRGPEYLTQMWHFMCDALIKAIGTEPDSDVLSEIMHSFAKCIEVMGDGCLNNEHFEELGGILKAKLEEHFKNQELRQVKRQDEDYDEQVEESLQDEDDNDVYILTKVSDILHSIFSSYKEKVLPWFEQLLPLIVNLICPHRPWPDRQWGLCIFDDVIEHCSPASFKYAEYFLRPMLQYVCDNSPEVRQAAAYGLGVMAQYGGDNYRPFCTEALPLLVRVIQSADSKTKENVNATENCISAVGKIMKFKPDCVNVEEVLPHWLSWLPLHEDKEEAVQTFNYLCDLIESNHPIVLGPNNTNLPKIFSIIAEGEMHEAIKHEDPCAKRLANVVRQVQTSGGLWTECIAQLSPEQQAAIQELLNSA

human importin β2 = molecular target: T2, human importin β2 (human, UniProt Q92973 1-898)
T2 construct: human importin β2; In pET30a with His tag and TEV site; no cleavage step is described in the purification; also called hIMPβ2; IMPβ2; source: E. coli BL21(DE3)pLysS, purified (HisTrap, Superdex 200 SEC)
T2 sequence (looked up): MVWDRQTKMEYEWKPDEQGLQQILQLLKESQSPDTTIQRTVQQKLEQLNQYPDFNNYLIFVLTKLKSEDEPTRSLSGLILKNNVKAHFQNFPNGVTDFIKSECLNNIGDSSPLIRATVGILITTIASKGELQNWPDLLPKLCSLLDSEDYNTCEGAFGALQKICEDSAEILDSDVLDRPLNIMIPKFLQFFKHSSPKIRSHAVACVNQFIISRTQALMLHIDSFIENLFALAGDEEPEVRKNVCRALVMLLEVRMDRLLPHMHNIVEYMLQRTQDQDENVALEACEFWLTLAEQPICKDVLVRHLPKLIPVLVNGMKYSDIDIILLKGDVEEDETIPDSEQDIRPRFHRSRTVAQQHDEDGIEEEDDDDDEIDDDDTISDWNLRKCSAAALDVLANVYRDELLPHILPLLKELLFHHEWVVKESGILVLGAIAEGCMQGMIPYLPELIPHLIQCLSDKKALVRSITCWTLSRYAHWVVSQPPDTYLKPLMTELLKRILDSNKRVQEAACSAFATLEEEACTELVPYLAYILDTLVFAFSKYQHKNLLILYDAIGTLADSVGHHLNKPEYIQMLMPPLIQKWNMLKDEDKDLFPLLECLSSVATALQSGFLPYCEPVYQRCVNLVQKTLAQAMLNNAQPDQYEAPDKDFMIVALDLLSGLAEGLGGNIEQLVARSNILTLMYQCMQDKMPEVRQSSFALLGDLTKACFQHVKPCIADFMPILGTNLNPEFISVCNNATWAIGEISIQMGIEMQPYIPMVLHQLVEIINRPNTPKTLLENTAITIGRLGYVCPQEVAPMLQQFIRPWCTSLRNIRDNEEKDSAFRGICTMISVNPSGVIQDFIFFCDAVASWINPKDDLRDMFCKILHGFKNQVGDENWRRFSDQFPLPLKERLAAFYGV

human importin β1 = molecular target: T3, human importin β1 (human, UniProt Q14974 1-876)
T3 construct: human importin β1; In pMCSG21 with His tag and TEV site; no cleavage step is described in the purification; also called hIMPβ1; IMPβ1; source: E. coli BL21(DE3)pLysS, purified (HisTrap, Superdex 200 SEC)

Measured: binding result

T3 sequence (Q14974 whole entry): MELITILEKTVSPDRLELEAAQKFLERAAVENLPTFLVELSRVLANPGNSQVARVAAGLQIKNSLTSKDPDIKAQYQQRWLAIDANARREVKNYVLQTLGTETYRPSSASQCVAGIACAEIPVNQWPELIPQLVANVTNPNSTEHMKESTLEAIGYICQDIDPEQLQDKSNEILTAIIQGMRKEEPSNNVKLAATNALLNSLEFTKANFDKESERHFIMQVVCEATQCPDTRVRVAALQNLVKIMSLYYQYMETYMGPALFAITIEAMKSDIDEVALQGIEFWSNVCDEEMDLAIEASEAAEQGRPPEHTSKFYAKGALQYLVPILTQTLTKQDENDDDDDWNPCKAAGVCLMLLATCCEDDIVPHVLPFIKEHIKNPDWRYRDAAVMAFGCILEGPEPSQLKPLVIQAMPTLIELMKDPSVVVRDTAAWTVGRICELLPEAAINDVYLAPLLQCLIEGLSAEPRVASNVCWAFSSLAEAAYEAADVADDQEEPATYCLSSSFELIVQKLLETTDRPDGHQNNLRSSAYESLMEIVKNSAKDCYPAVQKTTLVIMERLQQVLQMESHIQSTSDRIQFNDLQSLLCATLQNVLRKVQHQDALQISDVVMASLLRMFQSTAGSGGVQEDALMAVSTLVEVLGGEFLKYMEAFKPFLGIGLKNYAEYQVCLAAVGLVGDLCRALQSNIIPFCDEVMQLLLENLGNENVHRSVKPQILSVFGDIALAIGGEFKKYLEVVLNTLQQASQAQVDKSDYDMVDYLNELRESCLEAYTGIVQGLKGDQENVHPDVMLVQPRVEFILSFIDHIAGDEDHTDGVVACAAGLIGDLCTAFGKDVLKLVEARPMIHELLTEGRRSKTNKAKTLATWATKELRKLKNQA

B1: BSB PyV-LTA;NLS peptide (Black Sea Bass polyomavirus large tumor antigen residues 660-683) (peptide)
peptide: {FITC-Ahx}-IAEYKRRHNIGSDGLPNKRRRCLF
notes: also called BSB PyV-LTA 660-683; BSBPyV LTA FITC-NLS peptide
binds: all assays above

— publication doi:10.1101/2025.05.20.655083, “Importin α/β1 dependent nuclear import of Black Sea Bass Polyomavirus Large Tumor Antigen is mediated by a classical NLS located downstream of the SF3 helicase domain” (bioRxiv, 2025)
